Source: publication PMC4389572
Residue numbers refer to the chain shown, from its start.

B1: SH3_(circ-Δ), backbone-cyclized N-terminal SH3 domain of c-Crk lacking Ala134 and Glu135 (Cys + residues 136-191) (domain or fragment)
chain: CYVRALFDFNGNDEEDLPFKKGDILRIRDKPEEQWWNAEDSEGKRGMIPVPYVEKYG
modifications: backbone cyclized: cyclo-[...], peptide bond between the N-terminal Cys and the C-terminal Gly191
B2: SH3_(circ-wt), backbone-cyclized N-terminal SH3 domain of c-Crk (Cys-Gly + residues 134-191) (domain or fragment)
chain: CGAEYVRALFDFNGNDEEDLPFKKGDILRIRDKPEEQWWNAEDSEGKRGMIPVPYVEKYG
modifications: backbone cyclized: cyclo-[...], peptide bond between the N-terminal Cys and the C-terminal Gly191
B3: SH3_(lin-wt), linear N-terminal SH3 domain of c-Crk (residues 134-190 with an additional Gly191) (domain or fragment)
chain: AEYVRALFDFNGNDEEDLPFKKGDILRIRDKPEEQWWNAEDSEGKRGMIPVPYVEKYG
B4: SH3_(circ-GΔ), backbone-cyclized N-terminal SH3 domain of c-Crk lacking Ala134 and Glu135 (Cys-Gly + residues 136-191) (domain or fragment)
chain: B3 chain with A1C, E2G
modifications: backbone cyclized: cyclo-[...], peptide bond between the N-terminal Cys and the C-terminal Gly191

biological target: C3G-based poly-Pro peptide ligand; experiment: other fluorescence titration; fluorescence-based titration assay as described in Camarero et al., 2001b; conditions not given here

Kd	Binder
430 nM	B1
890 nM	B2
870 nM	B3
470 nM	B4
